Results taken from paper PMC7597377 (Science signaling, 2020).
Read-outs that look alike come from different tables or passages of the source.

Assays:
Experiment in all cases: FRET or BRET
[1] = molecular target: T1, ERα ligand-binding domain Q375K (ERα-LBD-biotin) (human, biotin)
[2] = molecular target: T2, ERα ligand-binding domain Q375E (ERα-LBD-biotin) (human, biotin)
[3] = molecular target: T3, ERα ligand-binding domain, wild type (ERα-LBD-biotin) (human, biotin)
[4] = molecular target: T4, ERα ligand-binding domain Q375A (ERα-LBD-biotin) (human, biotin)
[5] = molecular target: T1, ERα ligand-binding domain Q375K …; remark: listed apart in the source
[6] = molecular target: T2, ERα ligand-binding domain Q375E …; remark: listed apart in the source
[7] = molecular target: T3, ERα ligand-binding domain, wild type …; remark: listed apart in the source
[8] = molecular target: T4, ERα ligand-binding domain Q375A …; remark: listed apart in the source
[9] = molecular target: T1, ERα ligand-binding domain Q375K …; remark: listed apart in the source
[10] = molecular target: T2, ERα ligand-binding domain Q375E …; remark: listed apart in the source
[11] = molecular target: T3, ERα ligand-binding domain, wild type …; remark: listed apart in the source
[12] = molecular target: T4, ERα ligand-binding domain Q375A …; remark: listed apart in the source
[13] = molecular target: T1, ERα ligand-binding domain Q375K …; remark: listed apart in the source
[14] = molecular target: T2, ERα ligand-binding domain Q375E …; remark: listed apart in the source
[15] = molecular target: T3, ERα ligand-binding domain, wild type …; remark: listed apart in the source
[16] = molecular target: T4, ERα ligand-binding domain Q375A …; remark: listed apart in the source
[17] = molecular target: T1, ERα ligand-binding domain Q375K …; remark: listed apart in the source
[18] = molecular target: T2, ERα ligand-binding domain Q375E …; remark: listed apart in the source
[19] = molecular target: T3, ERα ligand-binding domain, wild type …; remark: listed apart in the source
[20] = molecular target: T4, ERα ligand-binding domain Q375A …; remark: listed apart in the source
[21] = molecular target: T1, ERα ligand-binding domain Q375K …; remark: listed apart in the source
[22] = molecular target: T2, ERα ligand-binding domain Q375E …; remark: listed apart in the source
[23] = molecular target: T3, ERα ligand-binding domain, wild type …; remark: listed apart in the source
[24] = molecular target: T4, ERα ligand-binding domain Q375A …; remark: listed apart in the source

B1: SRC1 NR interaction domain (ca. 200 amino acids), FRET acceptor-labeled (domain or fragment)
chain: PSRLNIQPAKAESKDNKEIASILNEMIQSDNSSSDGKPLDSGLLHNNDRLSDGDSKYSQTSHKLVQLLTTTAEQQLRHADIDTSCKDVLSCTGTSNSASANSSGGSCPSSHSSLTERHKILHRLLQEGSPSDITTLSVEPDKKDSASTSVSVTGQVQGNSSIKLELDASKKKESKDHQLLRYLLDKDEKDLRSTPNLSLDDVKVKVEKKEQ
modifications: FRET acceptor label (not named)
Kd [1]: 1.6 nM
fold reduction in SRC1 binding vs WT ER (Kd mutant/Kd WT) [2]: 8.7 fold
Kd [3]: 3 nM
fold reduction in SRC1 binding vs WT ER (Kd mutant/Kd WT) [4]: 16 fold
Kd [5]: 1.7 nM
fold reduction in SRC1 binding vs WT ER (Kd mutant/Kd WT) [6]: 11 fold
Kd [7]: 3.4 nM
fold reduction in SRC1 binding vs WT ER (Kd mutant/Kd WT) [8]: 17 fold
Kd [9]: 2.1 nM
fold reduction in SRC1 binding vs WT ER (Kd mutant/Kd WT) [10]: 3.4 fold
Kd [11]: 6.4 nM
fold reduction in SRC1 binding vs WT ER (Kd mutant/Kd WT) [12]: 8 fold
Kd [13]: 1.5 nM
fold reduction in SRC1 binding vs WT ER (Kd mutant/Kd WT) [14]: 7.4 fold
Kd [15]: 3.5 nM
fold reduction in SRC1 binding vs WT ER (Kd mutant/Kd WT) [16]: 21 fold
fold increase in SRC1 binding with ligand vs E2 (Kd E2/Kd compound) [17]: 0.16 fold
fold reduction in SRC1 binding vs WT ER (Kd mutant/Kd WT) [17]: 0.62 fold
fold reduction in SRC1 binding vs WT ER (Kd mutant/Kd WT) [18]: 4.2 fold
fold increase in SRC1 binding with ligand vs E2 (Kd E2/Kd compound) [19]: 0.3 fold
fold reduction in SRC1 binding vs WT ER (Kd mutant/Kd WT) [20]: 5.5 fold
Kd [21]: 2.2 nM
fold reduction in SRC1 binding vs WT ER (Kd mutant/Kd WT) [22]: 2.8 fold
Kd [23]: 6.8 nM
fold reduction in SRC1 binding vs WT ER (Kd mutant/Kd WT) [24]: 8.8 fold
